Laboratory results published in patent US20140017249A1.

Molecular target: IL-1 receptor (UniProt P14778)
Assay: cell-based or functional assay

Chain of UniProt P14778 (P14778 18-569 limits assumed): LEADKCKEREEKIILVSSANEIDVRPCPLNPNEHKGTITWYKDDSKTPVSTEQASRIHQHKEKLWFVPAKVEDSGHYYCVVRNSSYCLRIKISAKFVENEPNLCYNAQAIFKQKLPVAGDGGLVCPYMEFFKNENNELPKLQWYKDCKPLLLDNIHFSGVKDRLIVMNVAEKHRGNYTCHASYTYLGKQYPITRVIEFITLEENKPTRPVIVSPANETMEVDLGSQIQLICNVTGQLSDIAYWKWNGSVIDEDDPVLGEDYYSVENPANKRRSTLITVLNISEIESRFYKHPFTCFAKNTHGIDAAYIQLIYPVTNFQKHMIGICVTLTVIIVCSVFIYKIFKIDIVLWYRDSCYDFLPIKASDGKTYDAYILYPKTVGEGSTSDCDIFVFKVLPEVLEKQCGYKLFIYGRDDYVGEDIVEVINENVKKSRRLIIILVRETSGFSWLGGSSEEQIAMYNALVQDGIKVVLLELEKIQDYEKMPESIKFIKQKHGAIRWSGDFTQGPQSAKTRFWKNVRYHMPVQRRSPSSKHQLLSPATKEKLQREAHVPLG

IC50 (pM): inhibition of IL-8 released by IL-1β stimulation, human whole blood, 100 pM rhIL-1β: 53.4 pM
Substance: Kineret® (anakinra) (from UniProt P18510 26-177) (ligand)
